For orientation: Km means the substrate concentration at which the rate is half of its maximum. The kcat is the number of substrate molecules converted per active site and unit of time at saturation.

Results on two proteins are retold here after publication PMC5053343, “Improvement of free fatty acid production using a mutant acyl-CoA thioesterase I with high specific activity in Escherichia coli” (Biotechnology for Biofuels, 2016).

Substrate in this data set: CCCCCCCCCCCCCCCC(=O)SCCNC(=O)CCNC(=O)[C@H](O)C(C)(C)COP(=O)(O)OP(=O)(O)OC[C@H]1O[C@@H](n2cnc3c(N)ncnc32)[C@H](O)[C@@H]1OP(=O)(O)O
Kind of data set: purified protein. The settings on record: 50 mM potassium phosphate pH 7.0, 80 ug/mL BSA, 0.1 mM DTNB, 3.1 x 10^-5 mM enzyme, 0-24 uM palmitoyl-CoA. It is filed as biochemical, Escherichia coli.

B1: 'TesA (leader sequence-deleted acyl-CoA thioesterase I) (Escherichia coli K-12) (protein)
chain: ADTLLILGDSLSAGYRMSASAAWPALLNDKWQSKTSVVNASISGDTSQQGLARLPALLKQHQPRWVLVELGGNDGLRGFQPQQTEQTLRQILQDVKAANAEPLLMQIRLPANYGRRYNEAFSAIYPKLAKEFDVPLLPFFMEEVYLKPQWMQDDGIHPNRDAQPFIADWMAKQLQPLVNHDS
notes: signal peptide removed (leaderless), C-terminal (His)6 tag from pET28a (NcoI/XhoI), kept; expressed in E. coli BL21(DE3), Ni-NTA purified
For B1, the Michaelis constant (Km) amounted to 6.69 µM and the kcat stood at 20.75 s⁻¹.

B2: 'TesA (leader sequence-deleted acyl-CoA thioesterase I) (Escherichia coli K-12; R90C) (protein)
chain: ADTLLILGDSLSAGYRMSASAAWPALLNDKWQSKTSVVNASISGDTSQQGLARLPALLKQHQPCWVLVELGGNDGLRGFQPQQTEQTLRQILQDVKAANAEPLLMQIRLPANYGRRYNEAFSAIYPKLAKEFDVPLLPFFMEEVYLKPQWMQDDGIHPNRDAQPFIADWMAKQLQPLVNHDS
notes: as for B1
With B2, the Michaelis constant (Km) is reported as 4.00 µM and the turnover number (kcat) came to 27.12 s⁻¹.
